Data taken from PMC10121170 (Science Advances, 2023).
Each block holds one molecule with its values, some of them ahead of it. No end group written: not given here.

Key:
[1] = target: human AURKA_(123–403), kinase domain of Aurora kinase A, wild type (human) (UniProt O14965); assay: ITC
SEC-MALS = target: the molecule itself; assay: SEC-MALS
[2] = target: T1, AURKA region (AURKA_(123–403)C290,393A) of CEP192-AURKA_(chimera) (human, UniProt O14965 123-403, C290,393A | C290,393A); assay: crystal structure
T1 sequence: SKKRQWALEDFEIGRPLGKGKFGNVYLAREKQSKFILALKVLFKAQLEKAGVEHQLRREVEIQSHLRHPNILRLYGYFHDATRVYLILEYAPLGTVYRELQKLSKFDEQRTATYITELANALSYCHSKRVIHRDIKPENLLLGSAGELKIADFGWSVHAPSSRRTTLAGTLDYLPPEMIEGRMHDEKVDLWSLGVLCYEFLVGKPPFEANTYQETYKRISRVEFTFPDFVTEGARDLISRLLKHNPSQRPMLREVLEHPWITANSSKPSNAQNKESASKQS

AURKA_(123–403) W128A = target: T2, AURKA_(123–403) W128A (human, UniProt O14965 123-403, W128A); assay: fluorescence polarisation
T2 sequence: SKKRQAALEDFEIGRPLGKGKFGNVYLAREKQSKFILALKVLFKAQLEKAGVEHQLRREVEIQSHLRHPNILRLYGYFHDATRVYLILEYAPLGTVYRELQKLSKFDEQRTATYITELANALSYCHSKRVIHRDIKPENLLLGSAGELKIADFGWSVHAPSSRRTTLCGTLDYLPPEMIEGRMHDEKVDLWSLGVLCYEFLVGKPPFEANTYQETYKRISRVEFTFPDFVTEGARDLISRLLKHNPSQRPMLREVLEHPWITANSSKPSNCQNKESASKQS

Kd [1]: 1200 nM
stoichiometry N [1]: 1
Molecule: N-terminal MBP-tagged AURKA-BD of human CEP192 residues 440 to 631 (from UniProt Q8TEP8 440-631) (domain or fragment)

B1: CEP192-AURKA_(chimera): CEP192_(506–527) fused to AURKA_(123–403)C290,393A without linker residues (other)
chain: EDFRSGSEAFDLIAQDEEEFNKSKKRQWALEDFEIGRPLGKGKFGNVYLAREKQSKFILALKVLFKAQLEKAGVEHQLRREVEIQSHLRHPNILRLYGYFHDATRVYLILEYAPLGTVYRELQKLSKFDEQRTATYITELANALSYCHSKRVIHRDIKPENLLLGSAGELKIADFGWSVHAPSSRRTTLAGTLDYLPPEMIEGRMHDEKVDLWSLGVLCYEFLVGKPPFEANTYQETYKRISRVEFTFPDFVTEGARDLISRLLKHNPSQRPMLREVLEHPWITANSSKPSNAQNKESASKQS
stoichiometry N (SEC-MALS): 3

binding result [2]: binds
Molecule: EDFRSGSEAFDLIAQDEEEFNK (domain or fragment) [CEP192 region (residues 506–527) of CEP192-AURKA_(chimera)]

binding result (AURKA_(123–403) W128A): binds
Molecule: EDFRSGSEAFDLIAQDEEEFNKEHQFIQEEN (also: FITC label, position not given here) [FITC-labeled CEP192_(506–536) peptide]
